In US20250340626A1 (INTERVET, published 2025):

T1: canine NGF receptor TrkA ECD-canine Fc fusion protein (canine)
T1 construct: also called cTrkA-ECD-IgG-B Fc fusion protein; canine TrkA-IgGBFc fusion protein
T1 chain: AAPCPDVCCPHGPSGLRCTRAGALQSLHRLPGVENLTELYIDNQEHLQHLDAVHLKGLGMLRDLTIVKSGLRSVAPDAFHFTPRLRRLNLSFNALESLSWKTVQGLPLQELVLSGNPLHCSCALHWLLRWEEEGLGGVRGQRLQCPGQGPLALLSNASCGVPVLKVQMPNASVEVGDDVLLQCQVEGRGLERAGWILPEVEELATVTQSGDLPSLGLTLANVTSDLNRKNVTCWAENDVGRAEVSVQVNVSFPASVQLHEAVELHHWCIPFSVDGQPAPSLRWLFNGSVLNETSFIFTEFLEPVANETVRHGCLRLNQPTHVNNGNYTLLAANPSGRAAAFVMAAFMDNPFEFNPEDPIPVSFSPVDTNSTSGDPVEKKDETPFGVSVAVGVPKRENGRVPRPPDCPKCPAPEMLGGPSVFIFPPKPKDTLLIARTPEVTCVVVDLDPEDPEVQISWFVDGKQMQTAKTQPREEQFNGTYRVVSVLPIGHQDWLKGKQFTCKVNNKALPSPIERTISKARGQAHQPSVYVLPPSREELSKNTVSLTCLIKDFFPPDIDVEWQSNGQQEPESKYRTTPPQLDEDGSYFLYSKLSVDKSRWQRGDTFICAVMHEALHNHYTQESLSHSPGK

B1: human-canine chimeric Fulranumab (antibody, V domains shown)
VH: EVQLVESGGGLVQPGGSLRLSCAASGFTLRSYSMNWVRQAPGKGLEWVSYISRSSHTIFYADSVKGRFTISRDNAKNSLYLQMDSLRDEDTAMYYCARVYSSGWHVSDYFDYWGQGILVTVSS
VL: AIQLTQSPSSLSASVGDRVTITCRASQGISSALAWYQQKPGKAPKLLIYDASSLESGVPSRFSGSGSGTDFTLTISSLQPEDFATYYCQQFNSYPLTFGGGTKVEIKR
notes: Human VH/VL of fulranumab fused to canine IgG-B constant regions and canine kappa constant region; expressed in HEK293, Protein A purified; also called Ful Chimeric; Ful Chim
B2: canine NGF (ligand)
chain: SSSHPVFHRGEFSVCDSVSVWVGDKTTATDIKGKEVMVLGEVNINNSVFKQYFFETKCRDPTPVDSGCRGIDSKHWNSYCTTTHTFVKALTMDGKQAAWRFIRIDTACVCVLSRKAGRRA
notes: also called canine Nerve Growth Factor; cNGF
B3: human-canine chimeric Fasinumab (antibody, V domains shown)
VH: QVQLVQSGAEVKKPGASVKVSCKVSGFTLTELSIHWVRQAPGKGLEWMGGFDPEDGETIYAQKFQGRVTMTEDTSTDTAYMELTSLRSEDTAVYYCSTIGVVTNFDNWGQGTLVTVSS
VL: DIQMTQSPSSLSASAGDRVTITCRASQAIRNDLGWYQQKPGKAPKRLIYAAFNLQSGVPSRFSGSGSGTEFTLTISSLQPEDLASYYCQQYNRYPWTFGQGTKVEIKR
notes: Human VH/VL of fasinumab fused to canine IgG-B constant regions and canine kappa constant region; also called Fas Chimeric; Fas Chim

How the values were obtained:
canine NGF = target: B2; experiment: ELISA, canine NGF coated, anti-dog IgG Fc-HRP detection
Description: The binding of chimeric and caninized antibodies to canine NGF was determined by ELISA as follows: [0132] 1. Coat 100 ng/well canine NGF in an immunoplate and incubate the plate at 4° C. overnight. [0133] 2. Wash the plate 3 times by PBS with 0.05% Tween 20 (PBST). [0134] 3. Block the plate by 0.5% BSA in PBS for 45-60 min at room temperature. [0135] 4. Wash the plate 3 times by PBST. [0136] 5. Make 3-fold dilution the antibodies in each column or row of dilution plate. [0137] 6. Transfer the diluted antibodies into each column or row of the immunoplate, and incubate the plate for 45-60 min at room temperature. [0138] 7. Wash the plate 3 times by PBST. [0139] 8. Add 1:2000 diluted horseradish peroxidase labeled anti-dog IgG Fc into each well of the plate and incubate the plate for 45-60 min at room temperature. [0140] 9. Wash the plate 3 times by PBST. [0141] 10. Add TMB Substrate into each well of the plate and incubate the plate for 10 to 15 min at room temperature for color development. [0142] 11. Add 100 μL of 1.5 M phosphoric acid into each well to stop the reaction. [0143] 12. Read the plate at 450 nm with 540 nm reference wavelength.

human TrkA on TF-1 cells = human TrkA on TF-1 cells (human, UniProt P04629 33-796); experiment: cell-based or functional assay
Chain of human TrkA on TF-1 cells (P04629 33-796): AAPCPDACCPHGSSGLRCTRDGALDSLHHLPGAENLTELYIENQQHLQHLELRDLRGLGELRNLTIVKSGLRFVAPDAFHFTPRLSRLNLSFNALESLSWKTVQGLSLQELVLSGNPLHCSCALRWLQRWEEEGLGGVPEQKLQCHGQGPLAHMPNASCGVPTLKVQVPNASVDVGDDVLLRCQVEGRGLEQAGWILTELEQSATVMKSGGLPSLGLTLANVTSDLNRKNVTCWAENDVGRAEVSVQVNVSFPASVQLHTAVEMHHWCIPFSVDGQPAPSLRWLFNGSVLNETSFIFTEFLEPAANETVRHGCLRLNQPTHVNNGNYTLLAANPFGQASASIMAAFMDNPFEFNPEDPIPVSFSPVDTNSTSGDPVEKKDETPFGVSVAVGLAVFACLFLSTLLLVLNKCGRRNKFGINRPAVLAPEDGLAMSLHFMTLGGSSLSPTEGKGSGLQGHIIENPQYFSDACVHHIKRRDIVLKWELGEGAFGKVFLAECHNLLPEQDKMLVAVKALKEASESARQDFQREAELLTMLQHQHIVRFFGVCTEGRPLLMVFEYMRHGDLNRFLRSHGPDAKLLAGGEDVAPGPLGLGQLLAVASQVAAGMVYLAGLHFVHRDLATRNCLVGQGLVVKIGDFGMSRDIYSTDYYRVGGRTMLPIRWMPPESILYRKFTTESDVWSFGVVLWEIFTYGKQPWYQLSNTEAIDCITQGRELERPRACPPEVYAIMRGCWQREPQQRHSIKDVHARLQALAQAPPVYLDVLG

[1] = target: T1, canine NGF receptor TrkA ECD-canine Fc …; experiment: ELISA, canine NGF on canine TrkA receptor

## B1
Canine NGF
  EC50: 0.022 nM

## B2
Human TrkA on TF-1 cells
  TF-1 cell proliferation (CellTiter-Glo luminescence) EC50: 28 nM
[1]
  EC50: 54 nM

## B3
Canine NGF
  EC50: 122 nM
